Tests used:
[1] = molecular target: T1, human ILT8 expressed on CHO-K1 cells (human, UniProt Q6PI73 24-481); assay: cell-based ELISA on CHO-K1 cells expressing human ILT8, HRP anti-mouse IgG, OD 450-650 nm
T1 construct: whole, on cells; also called CHO-ILT8
Method: Mouse anti-human ILT3 antibodies were tested for binding to human ILT3, and cross-reactivity to Rhesus monkey ILT3, human ILT5, human ILT7, human ILT8, and human ILT11 expressing CHO-K1 cells using a cell-based ELISA format. CHO-K1 cells were plated in 96-well tissue-culture plates in 50 μL of DMEM/F12, 10% BCS and gentamycin (CHO-K1 media). Cells were plated at either 2×10⁴ cells/well two days prior to the assay or 4×10⁴ cells/well one day prior to the assay. Media was removed from the wells prior to adding the test samples. Purified antibody was serially-diluted in CHO-K1 media and added to the CHO-K1 plates. The samples were incubated at room temperature for 30-60 minutes and plates were washed three times with PBS/05% Tween-20 using the cell wash program on the Biotek EL405x Select CW plate washer. Binding was detected using an HRP-conjugated goat anti-mouse IgG (Southern Biotech cat #1031-05) secondary antibody added at a 1:2000 dilution in CHO-K1 media and incubated at room temperature for 30-60 minutes. Assay plates were washed as above and developed with TMB and stopped with TMB stop solution (KPL cat #50-85-06). […] Mouse IgG1 (MIgG1) served as a control.

[2] = molecular target: T2, human ILT3 expressed on cells (human, UniProt Q8NHJ6 22-448); assay: cell-based ELISA on CHO-K1 cells expressing human ILT3, HRP anti-mouse IgG, OD 450-650 nm
T2 construct: whole, on cells; also called huILT3; LILRB4

[3] = molecular target: T3, Rhesus monkey ILT3 expressed on CHO-K1 cells (rhesus monkey (Macaca mulatta)); assay: cell-based ELISA on CHO-K1 cells expressing Rhesus monkey ILT3, HRP anti-mouse IgG, OD 450-650 nm
T3 construct: whole, on cells; also called rhILT3; CHO-rhesus ILT3

T1 sequence (Q6PI73 24-481): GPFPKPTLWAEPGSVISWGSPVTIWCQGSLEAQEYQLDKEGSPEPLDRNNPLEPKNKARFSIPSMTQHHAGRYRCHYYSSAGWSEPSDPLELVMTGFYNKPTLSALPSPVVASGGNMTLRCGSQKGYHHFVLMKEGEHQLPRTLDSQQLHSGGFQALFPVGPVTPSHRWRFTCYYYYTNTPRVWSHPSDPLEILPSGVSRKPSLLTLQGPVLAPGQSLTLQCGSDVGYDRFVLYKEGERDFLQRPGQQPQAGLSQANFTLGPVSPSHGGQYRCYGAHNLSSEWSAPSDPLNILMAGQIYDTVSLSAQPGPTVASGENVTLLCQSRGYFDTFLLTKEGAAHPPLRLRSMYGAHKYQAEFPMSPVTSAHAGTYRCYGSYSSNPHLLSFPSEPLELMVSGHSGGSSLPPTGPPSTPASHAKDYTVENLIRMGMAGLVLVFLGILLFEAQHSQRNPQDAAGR

B1: humanized anti-ILT3 monoclonal antibody 9B11 (antibody, V domains shown)
VH: EVQLVESGGGLVKPGGSLRLSCAASGFAFSSYDMSWVRQAPGKGLEWVSTISSSGSYTYYPDSVKGRFTISRDNAKNSLYLQMNSLRAEDTAVYYCARLWGAMDYWGQGTLVTVSS
VL: DIQMTQSPSSLSASVGDRVTITCRASQGLTNDLHWYQQKPGKAPKRLIYYASQSISGVPSRFSGSGSGTEFTLTISSLQPEDFATYYCQQSNSWPFTFGQGTKLEIK
EC50 (read off the curve) [1]: ~0.02 µg/mL | EC50 (read off the curve) [2]: ~0.02 µg/mL | EC50 (read off the curve) [3]: ~0.05 µg/mL

— patent US20260167718A1 (Merck Sharp & Dohme, published 2026)
